Data taken from US20050171026.

Target: Recombinant His-tagged SF2/ASF (rSF2/ASF) (UniProt Q07955)
Sequence (Q07955 whole entry): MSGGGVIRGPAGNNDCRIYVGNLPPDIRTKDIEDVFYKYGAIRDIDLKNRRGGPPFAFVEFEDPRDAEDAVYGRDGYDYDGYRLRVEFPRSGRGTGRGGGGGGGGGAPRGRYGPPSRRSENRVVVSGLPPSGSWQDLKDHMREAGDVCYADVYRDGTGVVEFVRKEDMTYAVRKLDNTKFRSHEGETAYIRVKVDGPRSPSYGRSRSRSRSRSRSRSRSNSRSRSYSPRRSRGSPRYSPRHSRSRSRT

Chain of Glutathione S-transferase-tagged mClk1/Sty (recombinant Clk1/Sty) (chain, as listed by the source): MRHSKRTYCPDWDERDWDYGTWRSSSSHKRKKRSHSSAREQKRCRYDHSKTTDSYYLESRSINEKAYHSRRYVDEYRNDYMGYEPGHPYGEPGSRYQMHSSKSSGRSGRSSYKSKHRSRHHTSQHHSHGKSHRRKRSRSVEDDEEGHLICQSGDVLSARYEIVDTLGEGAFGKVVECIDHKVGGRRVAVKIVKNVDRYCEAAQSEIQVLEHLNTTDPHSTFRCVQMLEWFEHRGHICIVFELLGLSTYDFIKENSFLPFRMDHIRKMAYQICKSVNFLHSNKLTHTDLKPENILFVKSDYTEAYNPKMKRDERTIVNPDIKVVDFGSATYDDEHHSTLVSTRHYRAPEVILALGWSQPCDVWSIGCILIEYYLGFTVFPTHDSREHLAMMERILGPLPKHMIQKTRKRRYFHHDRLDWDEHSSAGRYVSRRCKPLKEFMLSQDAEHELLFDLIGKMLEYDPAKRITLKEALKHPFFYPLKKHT

With “Glutathione S-transferase-tagged mClk1/Sty (recombinant Clk1/Sty)” the “electrophoretic mobility of rSF2/ASF on SDS-PAGE / Western blot with AK103 (phosphorylation state)” value was “rSF2/ASF exhibited reduced electrophoretic mobility in the presence of Clk 1/Sty (FIG. 2A, lane 2) compared with the rSF2/ASF alone”.
